Legend:
[1] = system: A549 human non-small cell lung cancer line; assay: G418 (monolayer) colony growth assay; type: cell-based; conditions: transfected A549, G418 for 3 weeks; mean over three experiments
Excerpt: (§1) Figure 6 Talin R8 Mutations Disrupt the Interaction with DLC1 and Affect Its Biological Activity (A) Wild-type GST-talin fragments pull down more DLC1 than the 2E mutants. Extracts of HEK293T cells transfected with GFP-DLC1 and GST-talin constructs were subjected to pull-down assays with glutathione beads followed by immunoblotting with anti-GST and anti-DLC1 on the same membrane (top). The transfected GFP-DLC1 in each sample is shown by the anti-DLC1 blot (bottom) as a loading control. (B) Wild-type GST-talin fragments compete efficiently with endogenous talin to form a complex with DLC1. The supernatants collected after pull-down assay from (A) were reused for co-immunoprecipitation with an anti-talin antibody and blotted with anti-DLC1 (top). A small aliquot from each lane was blotted for endogenous talin as a loading control (bottom). (C) Co-expression of GST or GST-talin fragments (wild-type or 2E mutant) with GFP DLC1 in A549 cells. […] Transfected A549 cells were cultured in G418 for 3 weeks, and colonies counted and quantitated (top). […] Transfected A549 cells were grown for 3 weeks in soft agar, and colonies counted and quantitated (top). […] Lysates from migrated cells were quantitated (top), and representative microscopic images of the migrated cells are shown (bottom). […]

[2] = system: A549 human non-small cell lung cancer line; assay: Transwell cell migration assay; type: cell-based; conditions: transfected A549, transwell, 24 h; mean over three experiments
Excerpt: as §1

B1: GST-R8: GST-tagged talin R8, amino acids 1,453–1,580 (protein)
chain: NSQAGQQGLVEPTQFARANQAIQMACQSLGEPGCTQAQVLSAATIVAKHTSALCNSCRLASARTANPTAKRQFVQSAKEVANSTANLVKTIKALDGDFTEENRAQCRAATAPLLEAVDNLSAFASNPE
modifications: left off: GST, end not stated, kept
With B1 the colony growth [1] was “no detectable biological activity” and the cell migration [2] was “no detectable biological activity”.

From publication PMC4938799, “LD Motif Recognition by Talin: Structure of the Talin-DLC1 Complex” (Structure(London, England:1993), 2016)
